Assay [1] deals with Trypanosoma brucei haptoglobin-haemoglobin receptor, truncated N-terminal ligand-binding domain (residues 36-299) (Trypanosoma brucei brucei) (UniProt Q581F2). Briefly: SPR. For orientation: In SPR one partner is held on a chip, and binding of the other changes the refractive index at the surface.
For assay [2], the target named is Native (dimeric) human haptoglobin-haemoglobin complex (Hp 1-1 with Hb) (human) (UniProt P00738). Briefly: SEC-MALS. On the technique in general: Size exclusion chromatography separates by hydrodynamic size, large species first.
For assay [3] the target is unchanged. Put plainly: SEC-SAXS.

For orientation: Kd means the constant that tells how readily two partners part at equilibrium. Higher therefore signals lower affinity. Consider “HpSPHb complex: serine protease domain of human haptoglobin (148-406) bound to a human haemoglobin alpha-beta dimer (from UniProt P00738 148-406)”, for which, in assay [1], the Kd amounted to 0.7 µM.
For “HprSPHb complex: serine protease domain of human haptoglobin-related protein (90-348) bound to human haemoglobin (from UniProt P00739 90-348)”, the Kd in assay [1] came out at 1.7 µM.
Regarding “Trypanosoma brucei haptoglobin-haemoglobin receptor, truncated N-terminal ligand-binding domain (residues 36-299) (from UniProt Q581F2 36-299)”, the stoichiometry N (receptors per HpHb) in assay [2] and in assay [3] was 2 each time.

The values above are taken from PMC4383175.
